One may read the Tm as the temperature at the midpoint of the melting transition.

These results are taken from FireProtDB (doi:10.1074/jbc.272.30.18686).

The conditions of this data set: Escherichia coli (strain K12); pH 3.2; Thermal; CD; glycine-HCl 10 mM; reversible: yes; whole UniProt chain shown.

B1: Ribonuclease HI wild type, P0A7Y4 (protein)
chain: MLKQVEIFTDGSCLGNPGPGGYGAILRYRGREKTFSAGYTRTTNNRMELMAAIVALEALKEHCEVILSTDSQYVRQGITQWIHNWKKRGWKTADKKPVKNVDLWQRLDAALGQHQIKWEWVKGHAGHPENERCDELARAAAMNPTLEDTGYQVEV
Regarding B1, the midpoint of thermal melting (Tm) turned out to be 53 °C and the “unfolding enthalpy (van 't Hoff)” value was 99.2 kcal/mol.
